Where two headings read alike, the source gives them in different places.
Legend:
[1] = target: Biotinylated Grb2 SH2 domain protein (UniProt P62993); test: SPR (Biacore S51), steady state, compound injected over immobilized b-Grb2 SH2 domain
Grb2 SH2 domain protein = target: T1, Grb2 SH2 domain protein (Homo sapiens, UniProt P62993); test: Biosensor (Biacore S51 surface plasmon resonance) direct binding to chip-bound Grb2 SH2 domain protein; conditions: binding affinity to Grb2 SH2 domain protein, complex binding kinetics
T1 construct: made in house
T1 sequence (P62993 60-152 limits assumed): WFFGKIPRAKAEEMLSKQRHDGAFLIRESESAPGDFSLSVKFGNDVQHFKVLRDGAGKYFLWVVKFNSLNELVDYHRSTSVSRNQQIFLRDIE
Method: Biosensor Analysis: Binding experiments were performed on a Biacore S51 instrument (Biacore Inc., Piscataway N.J.). All Biotinylated Grb2 SH2 domain proteins (b-Grb2) were expressed and purified (Protein Expression Laboratory and The Protein Chemistry Laboratory, SAIC—Frederick). The b-Grb2 was immobilized onto carboxymethyl 5′ dextran surface (CM5 sensor chip, Biacore Inc.) by amine coupling. The lyophilized b-Grb2 was reconstituted in fifty percent DMSO in H2O to make a stock solution of 1 mg/mL and stored at −80° C. A 1: 12.5 dilution of b-Grb2 was used for immobilization, by dilution in acetate buffer pH-5.0, with 5% DMSO. 1×PBS (phosphate buffered saline, pH 7.4) was used as the running buffer.
An immobilization wizard was used to optimize the immobilization target. For b-Grb2, 2500-5000 resonance units (RU) of protein were captured on the CM5 sensor chip. Small molecules were serially diluted in running buffer to the concentrations (1.25 nM-1500 nM) as indicated in each sensorgram and injected at 25° C. at a flow rate of 30 μL/min for 2 minutes. Varying concentrations of small molecules were injected in increasing concentrations, and every injection was performed in duplicate within each experiment. […]

Sequence of Biotinylated Grb2 SH2 domain protein (P62993 60-152 limits assumed): as above

| Compound | Kd [1] [nM] | Kd (Grb2 SH2 domain protein; first of two Kd values, read-out: Kd (complex binding kinetics, first value)) [nM] | Kd (Grb2 SH2 domain protein; second of two Kd values, read-out: Kd (complex binding kinetics, second value)) [nM] |
| --- | --- | --- | --- |
| Cyclo{[(2R,3R)-3-(4-dihydroxyphosphonomethyl)phenyl-2-(hydroxycarbonylmethyl)pent-4-enyl]-Ac6c-L-Asn-D-AllylGly}-(1-naphthyl)methyl amide (4) (peptide) | 54.9 |  |  |
| Cyclo{[(2R,3R)-3-(4-dihydroxyphosphonomethyl)phenyl-2-(hydroxycarbonylmethyl)pent-4-enyl]-Ac6c-L-Asn-L-AllylGly}-(1-naphthyl)methyl amide (3) (peptide) | 22.7 |  |  |
| NC(=O)CC1NC(=O)C2(CCCCC2)NC(=O)[C@@H](CC(=O)O)[C@@H](c2ccc(CP(=O)(O)O)cc2)/C=C/CCC2(CCCCC2)CNC1=O (some centres unmarked) [compound 24] |  | 9.3 ± 0.1 | 21300 ± 500 |
| [(2R)-3-(4-Dihydroxyphosphonomethyl)phenyl-2-(hydroxylcarbonylmethyl)propionyl]-Ac6c-L-Asn-Gly-(1-naphthyl)methyl amide (2) (peptide) | 5610 |  |  |

— patent US20080139456A1, “Macrocyclic Sh2 Domain Binding Inhibitors” (priority 2005, published 2008)
